Measured values as given in patent publication US6235711A, “Cell adhesion ihibiting compounds” (Zeneca Limited, priority 1996, dated 2001).
Positions of bridges follow the written chain, without caps; N, C: chain ends. Non-standard residues stand in square brackets, D forms with d. Residues, ends and D or L forms follow the SMILES beside them. No end group written: not given here. *: point of attachment. Acetyl(1-adamantyl) = O=C(CC12CC3CC(CC(C3)C1)C2)*; NMeF = CN[C@@H](Cc1ccccc1)C(=O)O

Key:
α4β1 = biological target: T1, α4β1 (Homo sapiens, UniProt P05556+P13612); settings: Jurkat cells; read-out: IC50, blocking Jurkat cell adhesion to CS-1 coated plates; cited from earlier work
T1 construct: host or cells: Jurkat cells (endogenous integrin)
T1 sequence (P13612 34-1032): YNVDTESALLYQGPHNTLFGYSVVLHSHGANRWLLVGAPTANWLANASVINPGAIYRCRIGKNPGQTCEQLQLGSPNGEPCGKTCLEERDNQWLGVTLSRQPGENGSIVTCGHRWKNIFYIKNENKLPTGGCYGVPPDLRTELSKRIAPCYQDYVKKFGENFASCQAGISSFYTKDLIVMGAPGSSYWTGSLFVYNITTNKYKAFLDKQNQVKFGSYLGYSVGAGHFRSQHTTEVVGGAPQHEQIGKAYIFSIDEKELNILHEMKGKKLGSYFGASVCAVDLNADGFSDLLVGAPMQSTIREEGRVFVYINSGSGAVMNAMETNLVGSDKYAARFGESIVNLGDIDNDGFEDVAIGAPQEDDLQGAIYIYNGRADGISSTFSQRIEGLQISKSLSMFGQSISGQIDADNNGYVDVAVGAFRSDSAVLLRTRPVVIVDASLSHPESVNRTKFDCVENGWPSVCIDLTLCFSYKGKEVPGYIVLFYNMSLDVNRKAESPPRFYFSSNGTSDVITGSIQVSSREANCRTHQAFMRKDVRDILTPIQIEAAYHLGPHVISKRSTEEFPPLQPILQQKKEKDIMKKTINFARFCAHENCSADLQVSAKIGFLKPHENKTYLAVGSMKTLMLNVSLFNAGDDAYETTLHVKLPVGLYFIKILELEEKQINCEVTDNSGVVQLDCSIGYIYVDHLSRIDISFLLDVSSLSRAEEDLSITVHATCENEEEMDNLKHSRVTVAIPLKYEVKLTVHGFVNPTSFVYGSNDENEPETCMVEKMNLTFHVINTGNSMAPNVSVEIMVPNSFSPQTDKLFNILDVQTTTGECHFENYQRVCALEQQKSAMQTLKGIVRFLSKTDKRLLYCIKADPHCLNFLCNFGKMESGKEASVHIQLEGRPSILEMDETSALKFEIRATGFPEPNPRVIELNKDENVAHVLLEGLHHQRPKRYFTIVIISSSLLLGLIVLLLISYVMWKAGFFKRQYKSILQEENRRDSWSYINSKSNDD
T1 sequence (P05556 21-798): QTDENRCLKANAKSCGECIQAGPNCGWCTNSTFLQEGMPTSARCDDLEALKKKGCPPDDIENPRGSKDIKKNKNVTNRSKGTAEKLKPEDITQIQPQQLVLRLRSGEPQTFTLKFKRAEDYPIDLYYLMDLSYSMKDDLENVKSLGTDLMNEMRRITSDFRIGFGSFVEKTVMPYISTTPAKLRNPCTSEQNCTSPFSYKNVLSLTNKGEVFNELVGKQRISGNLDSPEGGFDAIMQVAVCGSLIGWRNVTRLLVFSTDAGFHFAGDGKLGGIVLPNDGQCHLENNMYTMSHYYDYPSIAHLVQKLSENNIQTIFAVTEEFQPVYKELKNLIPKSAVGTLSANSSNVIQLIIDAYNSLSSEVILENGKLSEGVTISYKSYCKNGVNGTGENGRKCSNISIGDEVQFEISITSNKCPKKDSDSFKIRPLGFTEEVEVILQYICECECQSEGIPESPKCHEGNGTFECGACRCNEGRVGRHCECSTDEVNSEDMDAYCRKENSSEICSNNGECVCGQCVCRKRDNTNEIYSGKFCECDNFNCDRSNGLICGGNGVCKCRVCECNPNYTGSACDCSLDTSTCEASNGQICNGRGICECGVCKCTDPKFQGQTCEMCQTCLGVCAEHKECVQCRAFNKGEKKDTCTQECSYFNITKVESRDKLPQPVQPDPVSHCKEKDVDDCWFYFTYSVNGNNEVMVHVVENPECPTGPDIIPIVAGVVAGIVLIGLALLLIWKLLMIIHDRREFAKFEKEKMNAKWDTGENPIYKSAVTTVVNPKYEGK

[1] = biological target: T2, VCAM-1-IgG fusion protein (Homo sapiens, UniProt P05556+P13612); settings: HL-60 cells; read-out: IC50, binding of HL-60 cells to VCAM-1-IgG fusion protein; cited from earlier work
T2 construct: host or cells: HL-60 cells (endogenous integrin); VCAM-1-IgG fusion protein of unstated origin
T2 sequence (P13612 34-1032): as the sequence (P13612 34-1032) above
T2 sequence (P05556 21-798): as the sequence (P05556 21-798) above

[2] = test system: αvβ3 as well as αIIbβIIIa; settings: cited from earlier work
fibronectin [3] = biological target: T3, fibronectin (Homo sapiens, UniProt P05556+P13612); settings: cited from earlier work
T3 construct: host or cells: Jurkat cells; fibronectin coated on plates
T3 sequence (P13612 34-1032): as the sequence (P13612 34-1032) above
T3 sequence (P05556 21-798): as the sequence (P05556 21-798) above

fibronectin [4] = settings: cited from earlier work
Balb/C female mice = assay: In vivo ovalbumin delayed type hypersensitivity model; settings: ovalbumin in the footpad
Procedure: Balb/C female mice (20-25 g) were immunised on the flank with an emulsion of ovalbumin (Sigma; 0.1 ml subcutaneous injection of 2 mg/ml solution mixed (1:1) with complete Freunds adjuvant; Difco). Seven days later the mice were challenged by subplantar injection of ovalbumin (30 μl of 1% heat aggregated ovalbumin in saline) into the left hind foot pad. Swelling of the foot developed over a 24 hour period following which foot pad thickness was measured and compared to the pre-challenge thickness. The percentage increase in foot pad thickness was calculated. Compounds were delivered by continuous infusion at doses within the range from 10 mg/kg/day to 0.001 mg/kg/day from subcutaneous Alzet osmotic minipumps which were implanted 24 hours prior to the ovalbumin challenge. Inhibition of the inflammatory response was calculated comparing vehicle treated animals and compound treated groups (n=5 animals per group).

For CLHGPEILDVPST, the IC50 (α4β1) is listed as 30 µM.
For c(Glu-TripLeu-Asp-Val), the IC50 [1] is given as 94 µM.
In the case of “c(Glu-Trp-Leu-Asp-Val-Pro-Glu-Trp-Leu-Asp-Val) (EWLDVPEWLDV; cyclised; printed: Glu-Trp-Leu-Asp-Val-Pro-Glu-Trp-Leu-Asp-Val)”, the IC50 [1] is listed as over 1000 µM.
For “1-adamantaneacetyl-Cys-Gly-Arg-Gly-Asp-Ser-Pro-Cys ({Acetyl(1-adamantyl)}-CGRGDSPC; disulfide 1-8 (inferred))”, the IC50 (α4β1) is given as 30 µM, the “function in αvβ3 as well as αIIbβIIIa-dependent assays” value [2] is given as “inhibited function” and the “binding of Jurkat cells to fibronectin coated plates” value (fibronectin [3]) is given as “inhibited the binding”.
In the case of Arg-Cys-Asp-thioproline-Cys, the “leukocyte cell adhesion to fibronectin” value (fibronectin [4]) is given as “inhibitor” and the “binding to the 120 kDa chymotryptic fragment of fibronectin” value (fibronectin [4]; fragment contains the Arg-Gly-Asp central cell binding domain) is given as “inhibited the binding”.
In the case of CC(C)C[C@@H]1NC(=O)[C@H](Cc2ccccc2)N(C)C(=O)[C@@H](CCCNC(=N)N)NC(=O)[C@@H](CCCNC(=N)N)NC(=O)[C@H](C(C)C)NC(=O)[C@H](CC(=O)O)NC1=O [compound 20, c(MePhe-Leu-Asp-Val-D-Arg-D-Arg)] (cyclo(DV[dR][dR][NMeF]L)), the “dose required to produce a half-maximal inhibitory response in DTH” value (Balb/C female mice) is reported as 0.01 mg/kg/day.
In the case of “c(Glu-Trp-Leu-Asp-Val-Asp) (EWLDVD; cyclised; printed: Glu-Trp-Leu-Asp-Val-Asp)”, the IC50 [1] is given as over 1000 µM.
